Measured values: US20100129383A1 (GOVERNORS OF THE UNIVERSITY OF ALBERTA, published 2010)

Target: T1, DEC-205 receptor on DC 2.4 cells (mouse) (mouse, UniProt Q60767 28-1723)
T1 construct: whole, on cells; also called CD205
Assay: competition cell ELISA on DC 2.4 cells; competitor bfFp (WET7) pre-bound

B1: HB290 mAb (rat anti-mouse DEC-205 monoclonal antibody) (antibody, V domains shown)
VH: EVKLVESGGGLVQPGGSLRLSCAASGFTFNDFYMNWIRQPPGQAPEWLGVIRNKGNGYTTEVNTSVKGRFTISRDNTQNILYLQMNSLRAEDTAIYYCARGGPYYYSGDDAPYWGQGVMVTVSS
VL: DIQMTQSPSFLSTSLGNSITITCHASQNIKGWLAWYQQKSGNAPQLLIYKASSLQSGVPSRFSGSGSGTDYIFTISNLQPEDIATYYCQHYQSFPWTFGGGTKLELK
notes: Full-length rat mAb from the ATCC hybridoma HB290; also called full-length HB290 mAb; NLDC-145
binding result: binds
